According to patent publication US7070969 (UNIVERSITY OF QUEENSLAND, dated 2006):
Substitutions are numbered along the chain they refer to.

B1: Textilinin 1 (other)
chain: KDRPDFCELPADTGPCRVRFPSFYYNPDEKKCLEFIYGGCEGNANNFITKEECESTCAA
notes: also called Txln 1
B2: Textilinin 2 (other)
chain: B1 chain with D5E, F6L, A11P, K30Q
notes: also called Txln 2

Columns and labels:
[1] = biological target: T1, Human plasmin (human, UniProt P00747 97-810); test: progress curves of S-2251 hydrolysis, 18 nM plasmin, n = 6, global fit to Eq. 1-3
T1 construct: mature
T1 sequence (P00747 97-810): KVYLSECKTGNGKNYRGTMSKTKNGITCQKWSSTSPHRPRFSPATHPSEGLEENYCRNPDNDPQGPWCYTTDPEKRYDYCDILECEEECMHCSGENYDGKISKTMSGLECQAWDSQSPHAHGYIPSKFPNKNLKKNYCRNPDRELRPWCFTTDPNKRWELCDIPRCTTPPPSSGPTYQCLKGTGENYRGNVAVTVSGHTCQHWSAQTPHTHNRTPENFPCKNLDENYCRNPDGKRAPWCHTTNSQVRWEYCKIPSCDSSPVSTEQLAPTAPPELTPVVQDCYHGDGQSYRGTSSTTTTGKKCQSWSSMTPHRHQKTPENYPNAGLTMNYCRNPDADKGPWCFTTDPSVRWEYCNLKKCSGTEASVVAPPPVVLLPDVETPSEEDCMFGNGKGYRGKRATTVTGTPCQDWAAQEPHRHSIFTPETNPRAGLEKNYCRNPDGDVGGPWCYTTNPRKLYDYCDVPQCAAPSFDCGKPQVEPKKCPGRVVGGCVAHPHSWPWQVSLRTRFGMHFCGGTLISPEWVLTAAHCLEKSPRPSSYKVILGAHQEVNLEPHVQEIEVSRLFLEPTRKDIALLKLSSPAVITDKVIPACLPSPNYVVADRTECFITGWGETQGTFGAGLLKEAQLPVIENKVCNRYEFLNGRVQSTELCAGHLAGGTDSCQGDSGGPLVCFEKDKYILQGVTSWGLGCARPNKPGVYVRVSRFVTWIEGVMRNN

[2] = biological target: T1, Human plasmin; test: comparison of Table 3 Ki values; reference aprotinin (Willmott et al., 1995)
[3] = biological target: T1, Human plasmin; test: progress curves of S-2251 hydrolysis, 2 nM plasmin, n = 6, global fit to Eq. 1-3
[4] = biological target: T1, Human plasmin; test: plasmin inhibition kinetics (kinetic profile)

Row | Binder | Ki [1] [nM] | fold difference of Ki against aprotinin [2] [fold] | Ki [3] [nM] | Ki [4] [nM]
1 | B1 | 2.6 | ~100 | 3.5 | –
2 | B2 | 2.8 | ~100 | 2.2 | 2
